This test addresses HLA-DR on rheumatoid synovial fluid mononuclear cells (human). Nature of the test: cell-based or functional assay.

As for “anti-HLA-DR monoclonal antibody L243 (ATCC)”, the inhibition of rheumatoid synovial fluid T cell proliferation to p78 lay within 66 to 84%.

The record behind these values is patent US6995240.
